5 molecules from paper doi:10.1101/695502 (bioRxiv, 2019) can be followed below.

Like-named read-outs stand apart in the source and are kept apart here.

The target of series [1] is bacterially produced mm PCDH15 EC9-MAD12 (Mus musculus). Kind of series: SEC-SAXS.
Series [2] addresses hs PCDH15 EC1-3 G16D/N369D/Q370N (Homo sapiens).
In series [3] the target is mm PCDH15 EC1-MAD12 CD1-1 (Mus musculus). Kind of series: SEC-MALS.
Series [4] has the same target. Nature of the series: SEC-MALS. The source holds these as a separate data set. Background: Size exclusion chromatography separates by hydrodynamic size, large species first.
In series [5] the target is mm PCDH15 EC9-MAD12 (mammalian-expressed, glycosylated) (Mus musculus). Nature of the series: SEC-MALS.
Series [6] concerns the molecule itself. Kind of series: AUC.

Turning to “bacterially produced mm PCDH15 EC9-MAD12 (domain or fragment)”, in series [1], the stoichiometry N – broadly, a count of units in the complex or per binding partner – came to 2.
Take “hs PCDH15 EC1-3 G16D/N369D/Q370N (domain or fragment)”: in series [2], the stoichiometry N was found to be 2.
Take “mm PCDH15 EC1-MAD12 CD1-1 (domain or fragment)”: the stoichiometry N in series [3] and in series [4] was 2 each time.
As to “mm PCDH15 EC9-MAD12 (mammalian-expressed, glycosylated) (domain or fragment)”, the stoichiometry N in series [5] worked out at 2.

B1: hs PCDH15 EC2-3 WT (domain or fragment, Homo sapiens)
chain: NSPTFKHESYYATVNELTPVGTTIFTGFSGDNGATDIDDGPNGQIEYVIQYNPDDPTSNDTFEIPLMLTGNIVLRKRLNYEDKTRYFVIIQANDRAQNLNERRTTTTTLTVDVLDGDDLGPMFLPCVLVPNTRDCRPLTYQAAIPELRTPEELNPIIVTPPIQAIDQDRNIQPPSDRPGILYSILVGTPEDYPRFFHMHPRTAELSLLEPVNRDFHQKFDLVIKAEQDNGHPLPAFAGLHIEILDENN
As to B1, in series [6], the Kd (in general, the free concentration of one partner at which half of the binding sites on the other are occupied at equilibrium, for simple one-to-one binding) is less than 1 µM and the “stoichiometry N” value was found to be 2.
